Patent WO2009082624A2

Molecular target: human IL-23 receptor (huIL-23R/huIL-12Rβ1) on Baf3/KZ134/huIL-23R/huIL-12Rβ1 Clone 6 cells (human) (UniProt P42701)
Test: cell-based or functional assay

human IL-23 receptor (huIL-23R/huIL-12Rβ1) on Baf3/KZ134/huIL-23R/huIL-12Rβ1 Clone 6 cells (human), sequence (chain, as listed by the source, chain 1 of 2, other chains not shown): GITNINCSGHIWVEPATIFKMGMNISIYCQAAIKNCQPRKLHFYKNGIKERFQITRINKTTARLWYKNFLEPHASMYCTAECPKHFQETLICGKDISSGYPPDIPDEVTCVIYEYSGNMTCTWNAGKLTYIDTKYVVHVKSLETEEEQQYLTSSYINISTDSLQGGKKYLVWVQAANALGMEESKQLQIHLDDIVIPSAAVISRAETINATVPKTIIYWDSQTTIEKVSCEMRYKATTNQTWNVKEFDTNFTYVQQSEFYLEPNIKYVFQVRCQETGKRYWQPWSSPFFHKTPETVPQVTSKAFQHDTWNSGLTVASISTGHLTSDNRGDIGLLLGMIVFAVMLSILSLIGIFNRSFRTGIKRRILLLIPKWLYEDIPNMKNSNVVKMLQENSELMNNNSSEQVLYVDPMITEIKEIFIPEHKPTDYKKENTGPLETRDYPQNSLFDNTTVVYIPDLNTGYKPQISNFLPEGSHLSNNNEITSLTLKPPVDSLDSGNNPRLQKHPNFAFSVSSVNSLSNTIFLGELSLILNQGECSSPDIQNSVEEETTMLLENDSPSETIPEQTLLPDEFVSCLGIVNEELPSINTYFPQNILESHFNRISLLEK

EC50, STAT3 phosphorylation in Baf3/KZ134/huIL-23R/huIL-12Rβ1 Clone 6 cells (ZymoGenetics IL-23): 0.02 nM | EC50, STAT3 phosphorylation in Baf3/KZ134/huIL-23R/huIL-12Rβ1 Clone 6 cells (eBioscience IL-23): 0.03 nM
Substance: human IL-23 (p19/p40 heterodimer), recombinant (from UniProt Q9NPF7 20-189; P29460 23-328) (ligand)
